In patent US20220332848A1 (NANJING GENSCRIPT BIOTECH, published 2022):

T1: human CTLA-4 (human, UniProt P16410 36-223)
T1 construct: whole, on cells; also called CTLA-4 antigen; cytotoxic T lymphocyte-associated antigen 4
T1 sequence (looked up): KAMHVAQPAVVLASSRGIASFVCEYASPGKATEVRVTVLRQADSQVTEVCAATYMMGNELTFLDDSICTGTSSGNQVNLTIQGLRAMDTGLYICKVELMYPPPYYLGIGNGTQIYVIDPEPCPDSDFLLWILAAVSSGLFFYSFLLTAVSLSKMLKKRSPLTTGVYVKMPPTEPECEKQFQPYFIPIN


Biological target: T1, human CTLA-4
Test: flow cytometry on CHO-K1 cells expressing CTLA-4
Description: For the constructed series of bispecific antibodies, the affinity of these samples with antigens was measured by using a flow cytometer. […] Then, an antibody-antigen binding curve was generated based on the geometric mean, raw data of four parameters was plotted by using the […] Prism V6.02 software, and a best fitted value program was compiled to analyze EC₅₀.

Row | Binder | binding result
1 | bispecific antibody CTLA4-G15-LN (bispecific antibody, human IgG4 S228P, kappa, also called L1 + H0) light: EVQLVESGGGLVQPGGSLRLSCAASGYTYSRHCLGWFRQAPGKGREAVSTIDSDGSTSYADSVKGRFTISRDNAKNTLYLQMNSLRPEDTAVYYCAIGPNPRYCSGAPNTRGAEHYFGYWGQGTLVTVSSGGGGSGGGGSGGGGSEIVLTQSPATLSLSPGERATLSCRASENVGTYISWYQQKPGQAPRLLIYGASNRYTGIPARFSGSGSGTDFTLTISSLEPEDFAVYYCGESYGHLYTFGGGTKVEIKRTVAAPSVFIFPPSDEQLKSGTASVVCLLNNFYPREAKVQWKVDNALQSGNSQESVTEQDSKDSTYSLSSTLTLSKADYEKHKVYACEVTHQGLSSPVTKSFNRGEC heavy: not shown | binds
2 | bispecific antibody CTLA4-G9-LN (bispecific antibody, human IgG4 S228P, kappa, also called L2 + H0) light: EVQLVESGGGLVQPGGSLRLSCAASGYTYSRHCLGWFRQAPGKGREAVSTIDSDGSTSYADSVKGRFTISRDNAKNTLYLQMNSLRPEDTAVYYCAIGPNPRYCSGAPNTRGAEHYFGYWGQGTLVTVSSGGGGSGGGSEIVLTQSPATLSLSPGERATLSCRASENVGTYISWYQQKPGQAPRLLIYGASNRYTGIPARFSGSGSGTDFTLTISSLEPEDFAVYYCGESYGHLYTFGGGTKVEIKRTVAAPSVFIFPPSDEQLKSGTASVVCLLNNFYPREAKVQWKVDNALQSGNSQESVTEQDSKDSTYSLSSTLTLSKADYEKHKVYACEVTHQGLSSPVTKSFNRGEC heavy: not shown | binds
3 | bispecific antibody CTLA4-E-HN (bispecific antibody, human IgG4 S228P, kappa, also called H2 + L0) heavy: not shown light: EIVLTQSPATLSLSPGERATLSCRASENVGTYISWYQQKPGQAPRLLIYGASNRYTGIPARFSGSGSGTDFTLTISSLEPEDFAVYYCGESYGHLYTFGGGTKVEIKRTVAAPSVFIFPPSDEQLKSGTASVVCLLNNFYPREAKVQWKVDNALQSGNSQESVTEQDSKDSTYSLSSTLTLSKADYEKHKVYACEVTHQGLSSPVTKSFNRGEC | binds
4 | bispecific antibody CTLA4-E-HC (bispecific antibody, human IgG4 S228P, kappa, also called H1 + L0) heavy: not shown light: EIVLTQSPATLSLSPGERATLSCRASENVGTYISWYQQKPGQAPRLLIYGASNRYTGIPARFSGSGSGTDFTLTISSLEPEDFAVYYCGESYGHLYTFGGGTKVEIKRTVAAPSVFIFPPSDEQLKSGTASVVCLLNNFYPREAKVQWKVDNALQSGNSQESVTEQDSKDSTYSLSSTLTLSKADYEKHKVYACEVTHQGLSSPVTKSFNRGEC | binds
5 | bispecific antibody CTLA4-G15-HN (bispecific antibody, human IgG4 S228P, kappa, also called H4 + L0) heavy: not shown light: EIVLTQSPATLSLSPGERATLSCRASENVGTYISWYQQKPGQAPRLLIYGASNRYTGIPARFSGSGSGTDFTLTISSLEPEDFAVYYCGESYGHLYTFGGGTKVEIKRTVAAPSVFIFPPSDEQLKSGTASVVCLLNNFYPREAKVQWKVDNALQSGNSQESVTEQDSKDSTYSLSSTLTLSKADYEKHKVYACEVTHQGLSSPVTKSFNRGEC | binds
6 | bispecific antibody CTLA4-G15-HC (bispecific antibody, human IgG4 S228P, kappa, also called H3 + L0) heavy: not shown light: EIVLTQSPATLSLSPGERATLSCRASENVGTYISWYQQKPGQAPRLLIYGASNRYTGIPARFSGSGSGTDFTLTISSLEPEDFAVYYCGESYGHLYTFGGGTKVEIKRTVAAPSVFIFPPSDEQLKSGTASVVCLLNNFYPREAKVQWKVDNALQSGNSQESVTEQDSKDSTYSLSSTLTLSKADYEKHKVYACEVTHQGLSSPVTKSFNRGEC | binds
